Assay results reported in article PMC11972413.

Legend:
Experiment in all cases: cryo-EM structure
[1] = biological target: short-tail fiber (STF) (bacteriophage φTE)
[2] = biological target: minor capsid protein (DEC) (bacteriophage φTE)
[3] = biological target: major capsid protein (MCP) (bacteriophage φTE)
[4] = biological target: portal protein (bacteriophage φTE)
[5] = biological target: tail tube protein (bacteriophage φTE)
[6] = biological target: tape measure protein (TMP), six-stranded part along the tail (bacteriophage φTE)
[7] = biological target: hub protein (bacteriophage φTE)
[8] = biological target: long-tail fiber (LTF) (bacteriophage φTE)
[9] = biological target: tube initiator (TI) protein (bacteriophage φTE)
[10] = biological target: adapter protein (bacteriophage φTE)
[11] = biological target: puncture apparatus (PA) (bacteriophage φTE)
[12] = biological target: tail sheath protein (bacteriophage φTE)

Substance “short-tail fiber (STF) (natural protein)” has a stoichiometry N [1] of 3.

For “minor capsid protein (DEC) (natural protein)”, the stoichiometry N [2] was 3.

For “major capsid protein (MCP) (natural protein)”, the stoichiometry N [3] was 6.

Substance portal protein (natural protein) has a stoichiometry N [4] of 12.

Substance tail tube protein (natural protein) has a stoichiometry N [5] of 6.

With “tape measure protein (TMP), six-stranded part along the tail (natural protein)” the stoichiometry N [6] was 6.

hub protein (natural protein) gave a stoichiometry N [7] of 3.

long-tail fiber (LTF) (natural protein) was tested, and the stoichiometry N [8] was 3.

Work on “tube initiator (TI) protein (natural protein)” yielded a stoichiometry N [9] of 6.

Substance adapter protein (natural protein) has a stoichiometry N [10] of 12.

Work on “puncture apparatus (PA) (natural protein)” yielded a stoichiometry N [11] of 3 and a stoichiometry N [7] of 1.

tail sheath protein (natural protein) was tested, and the stoichiometry N [12] was 6.
